Test results as given in US20250382363A1 (NUMAB THERAPEUTICS, published 2025).

What was measured:
[1] = target: T1, human a-PD-L1 Fc (Sino Biological, 10084-H02H, LC11NO2402) (human, UniProt Q9NZQ7 19-239); test: SPR, PD-L1 Fc immobilised, scFv analyte, 1:1 fit
T1 construct: Bought Fc fusion immobilised on the SPR chip; Printed as 'a-PD-L1 Fc' but used as the antigen (ligand) for the anti-PD-L1 scFvs; also called Human PD-L1; not shown: Fc part
Method: (§1) The mutation variants were then injected at concentrations of 10 nM, 2 nM and 0.4 nM over the ligand-immobilized and reference spots. The wild type variants were used as a control, while an empty spot was used as reference.
(§2) After each cycle with analyte, the surface was regenerated with a 3M MgCl₂ solution, thereby allowing the next analyte cycle to have only free ligand available. Binding affinity KD was globally calculated by the Bruker SPR software based on the binding association (kₒₙ) and dissociation (Koff) rate, by fitting a 1:1 Langmuir model to the curves obtained by the cycles with the three different concentrations of the analyte.

[2] = target: pre-existing anti-drug antibodies (ADA) present in human sera; test: pre-existing ADA ELISA, scFv coated, human sera unspiked vs spiked
[3] = target: T2, human a-Mesothelin (Acro Biosystems; MSN_H5223) (human, UniProt Q13421 296-580, limits assumed); test: SPR, mesothelin immobilised, scFv analyte, 1:1 fit
T2 construct: Bought protein immobilised on the SPR chip; Printed as 'a-Mesothelin' but used as the antigen for the anti-MSLN scFvs; also called Human MSLN; MSLN
T2 sequence (Q13421 other isoform, or with tags, fused parts or gaps limits assumed): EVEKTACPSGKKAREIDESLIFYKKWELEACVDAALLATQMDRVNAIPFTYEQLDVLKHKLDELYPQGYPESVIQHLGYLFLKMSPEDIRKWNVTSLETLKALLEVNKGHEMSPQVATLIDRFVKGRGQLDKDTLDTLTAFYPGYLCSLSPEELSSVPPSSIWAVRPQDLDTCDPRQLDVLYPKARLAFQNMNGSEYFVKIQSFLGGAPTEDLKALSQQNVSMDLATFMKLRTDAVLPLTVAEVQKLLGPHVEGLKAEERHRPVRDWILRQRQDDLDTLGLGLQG
Method: as §1, §2

T1 sequence (Q9NZQ7 19-239 limits assumed): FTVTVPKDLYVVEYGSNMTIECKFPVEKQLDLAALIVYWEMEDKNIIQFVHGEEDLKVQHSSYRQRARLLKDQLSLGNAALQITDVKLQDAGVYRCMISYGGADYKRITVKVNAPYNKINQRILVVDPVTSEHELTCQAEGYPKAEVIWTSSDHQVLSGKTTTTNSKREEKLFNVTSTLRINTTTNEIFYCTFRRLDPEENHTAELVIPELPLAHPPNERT

| Kd [1] [nM] | n-fold to wt [1] [fold] | Mean No of serum samples >30% inhibition (30% CCP) with SCP (serum samples) [2] | No of serum samples >30% inhibition (30% CCP) without SCP (serum samples) [2] | Kd [3] [nM] | n-fold to wt [3] [fold] | Binder |
| --- | --- | --- | --- | --- | --- | --- |
| 0.056 | 1.1 | 0 | 2 |  |  | PRO3340 (scFv 37-20-B03-sc09.1_(T101S, T146K)) (scFv, PRO2230 variant; VH substitutions, AHo numbering; also called PRO2230 T101S-T146K) scFv: DIQMTQSPASLSASVGDRVTITCQASQSIGTYLAWYQQKPGKPPKLLIYRAFILASGVPSRFSGSGSGTDFTLTISSLQPEDFATYYCQSNFYSDSTTIGPNAFGTGTKVTVLGGGGGSGGGGSGGGGSGGGGSEVQLVESGGGLVQPGGSLRLSCAASGFSFNSDYWIYWVRQAPGKGLEWIASIYGGSSGNTQYASWAQGRFTISRDNSKNTVYLQMNSLRAEDSAVYFCARGYVDYGGATDLWGQGTLVKVSS |
| 0.038 | 0.8 | 0 | 1 |  |  | PRO3342 (scFv 37-20-B03-sc09.1_(T101K, T146D)) (scFv, PRO2230 variant; VH substitutions, AHo numbering; also called PRO2230 T101K-T146D) scFv: DIQMTQSPASLSASVGDRVTITCQASQSIGTYLAWYQQKPGKPPKLLIYRAFILASGVPSRFSGSGSGTDFTLTISSLQPEDFATYYCQSNFYSDSTTIGPNAFGTGTKVTVLGGGGGSGGGGSGGGGSGGGGSEVQLVESGGGLVQPGGSLRLSCAASGFSFNSDYWIYWVRQAPGKGLEWIASIYGGSSGNTQYASWAQGRFTISRDNSKNTVYLQMNSLRAEDKAVYFCARGYVDYGGATDLWGQGTLVDVSS |
| 0.029 | 0.6 | 0 | 0 |  |  | PRO3343 (scFv 37-20-B03-sc09.1_(T101R, T146E)) (scFv, PRO2230 variant; VH substitutions, AHo numbering; also called PRO2230 T101R-T146E) scFv: DIQMTQSPASLSASVGDRVTITCQASQSIGTYLAWYQQKPGKPPKLLIYRAFILASGVPSRFSGSGSGTDFTLTISSLQPEDFATYYCQSNFYSDSTTIGPNAFGTGTKVTVLGGGGGSGGGGSGGGGSGGGGSEVQLVESGGGLVQPGGSLRLSCAASGFSFNSDYWIYWVRQAPGKGLEWIASIYGGSSGNTQYASWAQGRFTISRDNSKNTVYLQMNSLRAEDRAVYFCARGYVDYGGATDLWGQGTLVEVSS |
| 0.051 | 1 | 0 | 4 |  |  | PRO3341 (scFv 37-20-B03-sc09.1_(T101S, T146S)) (scFv, PRO2230 variant; VH substitutions, AHo numbering; also called PRO2230 T101S-T146S) scFv: DIQMTQSPASLSASVGDRVTITCQASQSIGTYLAWYQQKPGKPPKLLIYRAFILASGVPSRFSGSGSGTDFTLTISSLQPEDFATYYCQSNFYSDSTTIGPNAFGTGTKVTVLGGGGGSGGGGSGGGGSGGGGSEVQLVESGGGLVQPGGSLRLSCAASGFSFNSDYWIYWVRQAPGKGLEWIASIYGGSSGNTQYASWAQGRFTISRDNSKNTVYLQMNSLRAEDSAVYFCARGYVDYGGATDLWGQGTLVSVSS |
|  |  | 8 | 16 | 1.8 | 1 | PRO1922 (scFv 54-21-H03-sc01) (scFv, also called PRO1922 wt; a-MSLN wt) scFv: DIQMTQSPSSLSASVGDRVTITCQASESIYSSLAWYQQKPGKAPKLLIYLASTLASGVPSRFSGSGSGTDFTLTISSLQPEDFATYYCQSTDYTTSTHRNSFGTGTKVTVLGGGGGSGGGGSGGGGSGGGGSEVQLVESGGGLVQPGGSLRLSCAASGFSFSTTYYMCWVRQAPGKGLEWIGCTNTASSVRTYYATWAKGRFTISRDNSKNTVYLQMNSLRAEDTAVYYCARDMGFADYALNLWGQGTLVTVSS |
|  |  | 0 | 0 | 1.3 | 0.7 | PRO2930 (scFv 54-21-H03-sc01_(L144K, T146E, S148K)) (scFv, PRO1922 variant; VH substitutions, AHo numbering; also called PRO1922 L144K-T146E-S148K) scFv: DIQMTQSPSSLSASVGDRVTITCQASESIYSSLAWYQQKPGKAPKLLIYLASTLASGVPSRFSGSGSGTDFTLTISSLQPEDFATYYCQSTDYTTSTHRNSFGTGTKVTVLGGGGGSGGGGSGGGGSGGGGSEVQLVESGGGLVQPGGSLRLSCAASGFSFSTTYYMCWVRQAPGKGLEWIGCTNTASSVRTYYATWAKGRFTISRDNSKNTVYLQMNSLRAEDTAVYYCARDMGFADYALNLWGQGTKVEVKS |
|  |  | 3 | 5 | 2.4 | 1.3 | PRO2918 (scFv 54-21-H03-sc01_(L12R, V103T, L144Q)) (scFv, VH substitutions, AHo numbering; also called PRO1922-L12R-V103T-L144Q) scFv: DIQMTQSPSSLSASVGDRVTITCQASESIYSSLAWYQQKPGKAPKLLIYLASTLASGVPSRFSGSGSGTDFTLTISSLQPEDFATYYCQSTDYTTSTHRNSFGTGTKVTVLGGGGGSGGGGSGGGGSGGGGSEVQLVESGGGRVQPGGSLRLSCAASGFSFSTTYYMCWVRQAPGKGLEWIGCTNTASSVRTYYATWAKGRFTISRDNSKNTVYLQMNSLRAEDTATYYCARDMGFADYALNLWGQGTQVTVSS |
|  |  | 1 | 6 | 1.3 | 0.7 | PRO2942 (scFv 54-21-H03-sc01_(T146R)) (scFv, PRO1922 variant; VH substitution, AHo numbering; also called PRO1922 T146R) scFv: DIQMTQSPSSLSASVGDRVTITCQASESIYSSLAWYQQKPGKAPKLLIYLASTLASGVPSRFSGSGSGTDFTLTISSLQPEDFATYYCQSTDYTTSTHRNSFGTGTKVTVLGGGGGSGGGGSGGGGSGGGGSEVQLVESGGGLVQPGGSLRLSCAASGFSFSTTYYMCWVRQAPGKGLEWIGCTNTASSVRTYYATWAKGRFTISRDNSKNTVYLQMNSLRAEDTAVYYCARDMGFADYALNLWGQGTLVRVSS |
|  |  | 1 | 5 | 2.1 | 1.2 | PRO2932 (scFv 54-21-H03-sc01_(L144A, S148N)) (scFv, PRO1922 variant; VH substitutions, AHo numbering; also called PRO1922 L144A-S148N) scFv: DIQMTQSPSSLSASVGDRVTITCQASESIYSSLAWYQQKPGKAPKLLIYLASTLASGVPSRFSGSGSGTDFTLTISSLQPEDFATYYCQSTDYTTSTHRNSFGTGTKVTVLGGGGGSGGGGSGGGGSGGGGSEVQLVESGGGLVQPGGSLRLSCAASGFSFSTTYYMCWVRQAPGKGLEWIGCTNTASSVRTYYATWAKGRFTISRDNSKNTVYLQMNSLRAEDTAVYYCARDMGFADYALNLWGQGTAVTVNS |
|  |  | 0 | 0 | 1.9 | 1.1 | PRO2941 (scFv 54-21-H03-sc01_(T146K)) (scFv, PRO1922 variant; VH substitution, AHo numbering; also called PRO1922 T146K) scFv: DIQMTQSPSSLSASVGDRVTITCQASESIYSSLAWYQQKPGKAPKLLIYLASTLASGVPSRFSGSGSGTDFTLTISSLQPEDFATYYCQSTDYTTSTHRNSFGTGTKVTVLGGGGGSGGGGSGGGGSGGGGSEVQLVESGGGLVQPGGSLRLSCAASGFSFSTTYYMCWVRQAPGKGLEWIGCTNTASSVRTYYATWAKGRFTISRDNSKNTVYLQMNSLRAEDTAVYYCARDMGFADYALNLWGQGTLVKVSS |
|  |  | 1 | 4 | 0.66 | 0.4 | PRO2936 (scFv 54-21-H03-sc01_(T101S, T146Q)) (scFv, PRO1922 variant; VH substitutions, AHo numbering; also called PRO1922 T101S-T146Q) scFv: DIQMTQSPSSLSASVGDRVTITCQASESIYSSLAWYQQKPGKAPKLLIYLASTLASGVPSRFSGSGSGTDFTLTISSLQPEDFATYYCQSTDYTTSTHRNSFGTGTKVTVLGGGGGSGGGGSGGGGSGGGGSEVQLVESGGGLVQPGGSLRLSCAASGFSFSTTYYMCWVRQAPGKGLEWIGCTNTASSVRTYYATWAKGRFTISRDNSKNTVYLQMNSLRAEDSAVYYCARDMGFADYALNLWGQGTLVQVSS |
|  |  | 1 | 6 | 1.4 | 0.8 | PRO2931 (scFv 54-21-H03-sc01_(L144K, S148L)) (scFv, PRO1922 variant; VH substitutions, AHo numbering; also called PRO1922 L144K-S148L) scFv: DIQMTQSPSSLSASVGDRVTITCQASESIYSSLAWYQQKPGKAPKLLIYLASTLASGVPSRFSGSGSGTDFTLTISSLQPEDFATYYCQSTDYTTSTHRNSFGTGTKVTVLGGGGGSGGGGSGGGGSGGGGSEVQLVESGGGLVQPGGSLRLSCAASGFSFSTTYYMCWVRQAPGKGLEWIGCTNTASSVRTYYATWAKGRFTISRDNSKNTVYLQMNSLRAEDTAVYYCARDMGFADYALNLWGQGTKVTVLS |
|  |  | 0 | 5 | 1.9 | 1.1 | PRO2937 (scFv 54-21-H03-sc01_(T101S, L144A, T146Q)) (scFv, PRO1922 variant; VH substitutions, AHo numbering; also called PRO1922 T101S-L144A-T146Q) scFv: DIQMTQSPSSLSASVGDRVTITCQASESIYSSLAWYQQKPGKAPKLLIYLASTLASGVPSRFSGSGSGTDFTLTISSLQPEDFATYYCQSTDYTTSTHRNSFGTGTKVTVLGGGGGSGGGGSGGGGSGGGGSEVQLVESGGGLVQPGGSLRLSCAASGFSFSTTYYMCWVRQAPGKGLEWIGCTNTASSVRTYYATWAKGRFTISRDNSKNTVYLQMNSLRAEDSAVYYCARDMGFADYALNLWGQGTAVQVSS |
|  |  | 0 | 0 | 1.6 | 0.9 | PRO2938 (scFv 54-21-H03-sc01_(L12A, T101S, L144A, T146Q)) (scFv, PRO1922 variant; VH substitutions, AHo numbering; also called PRO1922 L12A-T101S-L144A-T146Q) scFv: DIQMTQSPSSLSASVGDRVTITCQASESIYSSLAWYQQKPGKAPKLLIYLASTLASGVPSRFSGSGSGTDFTLTISSLQPEDFATYYCQSTDYTTSTHRNSFGTGTKVTVLGGGGGSGGGGSGGGGSGGGGSEVQLVESGGGAVQPGGSLRLSCAASGFSFSTTYYMCWVRQAPGKGLEWIGCTNTASSVRTYYATWAKGRFTISRDNSKNTVYLQMNSLRAEDSAVYYCARDMGFADYALNLWGQGTAVQVSS |
